Measurements from patent US12312397B2, “Anti-O2 antibodies and uses thereof” (priority 2016, dated 2025).

What was measured:
[1] = system: O1 LPS activation of NF-κB in RAW264.7-lux cells; test: LPS neutralization assay (NF-κB luciferase, RAW264.7-lux), O1 LPS; type: cell-based, murine; set-up: key to LPS Neut O1: +++: Strongly positive activity; +: Positive activity; +/−: Somewhat positive depending upon the test conditions; conditions: for neutralizing activity against O1 LPS (NF-κB activation): human IgG1 format
Method: (§1) Activation of TLR4 receptors by bacterial LPS leads to downstream activation of the NF-κB transcriptional regulator. A decrease in induction of NF-κB-responsive luciferase activity was used to quantify LPS neutralization activity by LPS mAbs. A murine RAW264.7 macrophage cell line was engineered to carry a firefly luciferase reporter gene under the control of an NF-κB-responsive promoter (RAW264.7-lux). Serially diluted antibody stocks were mixed with LPS in a 1:1 ratio and incubated at 4° C. for 1 hr. Antibody/LPS mixtures were then diluted 1:10 into assay plates containing pre-seeded RAW264.7-lux cells (4e5 cells/well), which were then placed at 37° C. with 5% CO2 for 2.5 hours. Following incubations, Steady Glo solution (Promega) was added to each well and incubated for another 20 min protected from light. The relative light units (RLUs) were measured using a multi-mode microplate reader (Synergy 2, Biotek or envision multilabel plate reader, Perkin Elmer). The percentage of inhibition was determined by comparing RLU derived from assays with no antibodies to RLU derived from assays with anti-K. pneumoniae mAbs and assays performed with a negative control mAb. […] All mAbs were tested in human IgG1 format.

[2] = system: O2 LPS activation of NF-κB in RAW264.7-lux cells; test: LPS neutralization assay (NF-κB luciferase, RAW264.7-lux), O2 LPS; type: cell-based, murine; set-up: key to LPS Neut O2: +++: Strongly positive activity; +: Positive activity; +/−: Somewhat positive depending upon the test conditions; conditions: for LPS Neut O2: Table 7 summary; for neutralizing activity against O2 LPS (NF-κB activation): human IgG1 format
Method: as §1

[3] = system: K. pneumoniae 8570ΔcpsBLux (O2); test: Opsonophagocytic killing (OPK) assay, O2 capsule mutant; type: cell-based, Klebsiella pneumoniae; set-up: key to D Capsule OPK O2: +++: Strongly positive activity; +: Positive activity; +/−: Somewhat positive depending upon the test conditions; conditions: for D Capsule OPK O2: capsule mutant strain 8570ΔcpsB lux (O2); for OPK activity against O2 capsule mutant: secondary screening
Method: (§2) OPK activity of anti-O2 LPS mAbs was tested against O1 and O2 strains. Briefly, log phase cultures of luminescent K. pneumoniae strains 8570ΔcpsBLux (O2) and 43816ΔcpsBLux (O1) were diluted to ˜2×10^6 cells/ml. K. pneumoniae cells, 5e5/well dimethylformamide (DMF) differentiated HL-60 cells, cleared baby rabbit serum (1:10 Cedarlane), and a series dilution of antibodies (2 ng-2.5 μg/mL) were mixed in 96-well plates and incubated at 37° C. for two hours with shaking (250 rpm). The relative light units (RLUs) were then measured using a multi-mode microplate reader (Synergy 2, Biotek or envision multilabel plate reader, Perkin Elmer). The percentage of killing was determined by comparing RLU derived from assays with no antibodies to RLU derived from assays with anti-K. pneumoniae mAbs and assays performed with a negative control mAb. Positive killing was determined where the percentage of killing is above 40%.

K. pneumoniae O2 = test: Mouse protection models (O2), Table 7 summary; type: in vivo, Klebsiella pneumoniae; set-up: key: +++: Strongly positive activity; +: Positive activity; +/−: Somewhat positive depending upon the test conditions; conditions: mouse pneumonia models
Method: As described in more detail in below, anti-O2 LPS mAbs were tested for: 1) binding to O1 and O2 LPS (see Example 5); 2) LPS neutralization (LPS-Neut) against O1 and O2 LPS (see Example 7); 3) OPK against capsule mutant strain 43816ΔcpsB lux (O1) and 8570ΔcpsB lux (O2) (see Example 8); and 4) protective activity in pneumonia models (see Example 9). O2 LPS mAbs were subsequently divided into three classes based on their in vitro activities. Class I mAbs were characterized as Binding (O1+O2+)/OPK (O1−O2+); Class 2 mAbs were characterized as Binding (O1+O2+)/OPK (O1+O2+); and Class III mAbs were characterized as Binding (O1±O2+)/OPK (O1−O2+).
(§3) C57/BL6 mice were obtained from Jackson Laboratories and maintained in a special pathogen-free facility. All animal experiments were conducted in accordance with Institutional Animal Care and Use Committee (IACUC) protocol and guidance. K. pneumoniae strains were grown on agar plates overnight and diluted in saline at proper concentration. The inoculum titer was determined by plating a serial dilution of bacteria onto agar plates prior to and post challenge. In acute pneumonia models, C57/BL6 mice were inoculated with 1e4 to 2e8 colony-forming units (CFU) of K. pneumoniae clinical isolates in 50 μl saline intranasally. Anti-K pneumoniae monoclonal antibodies (mAbs) and human IgG1 control antibodies were given 1-24 hour post bacterial challenge (therapeutic dosing). Mouse survival was monitored daily until up to day 8. Survival data of representative experiments were plotted in Graphpad Prism software.
(§4) Mice were challenged with 2e8 CFU of Klebsiella pneumoniae Carbanpenemase (KPC) strain Kp961842_O2 or with 3e8 CFU of KPC strain Kp977778_O2, followed by the administration of anti-O2 mAbs. When administered at a concentration of 2 mg/kg 1 hour post bacterial infection, Class III anti-O2 LPS mAbs KPN42, KPN179-IgG1, and KPS44v2017 protected mice from lethal bacterial challenge with the multi-drug resistant KPC strains Kp961842_O2 (FIG. 6, left panel, and FIG. 10) and Kp977778_O2 (FIG. 6B, right panel).

O1 LPS = test: ELISA binding to O1 LPS; set-up: species or system Klebsiella pneumoniae; conditions: secondary screening
Method: (§5) The coated plates were incubated with cell culture supernatants from polyclonally stimulated lymphocytes (AMVBRA) or from monoclonal immortalized B cells (donor interrogations) containing fully human antibodies or with diluted plasma samples (PBMC donor selections) for 1 hour at room temperature. The plates were then washed with PBS containing 0.1% Tween-20 (PBS-T). Secondary antibody was added; either Alkaline Phosphatase-conjugated Goat Anti-Human IgG-AP (Southern Biotech, 2040-04, 1:1000 in PBS-B) or Peroxidase AffiniPure F(ab′)2 Fragment Goat Anti-Human IgG, Fc Fragment Specific (Jackson ImmunoResearch #309 036 098, 1:5000 in PBS-B) were used. Secondary antibodies were typically incubated for 1 h. Plates were washed three times with PBS-T, and P-NitroPhenyl Phosphate (pNPP, Sigma-Aldrich, cat #N2765-100TAB) or Sureblue (KPL, 53-00-03) substrates were added and incubated for 10 min or until the development of a colorimetric reaction. In the case of the HRP substrate Sureblue, the reaction was stopped by adding an equal volume of 0.2N HCl. The absorbance at 405 nm (pNPP) or 450 nm (Sureblue) was measured by a microplate reader (Biotek, Elx808).
(§6) The coated plates were incubated with serial dilutions of the monoclonal antibodies for 1 hour at room temperature. The plates were then washed with PBS containing 0.1% Tween-20 (PBS-T). Alkaline Phosphatase-conjugated Goat Anti-Human IgG (Southern Biotech, 2040-04, 1:1000 in PBS-B) was added. The secondary antibody reactions were incubated for 1 h. Plates were washed three times with PBS-T, and P-NitroPhenyl Phosphate (pNPP, Sigma-Aldrich, cat #N2765-100TAB) substrate was added and incubated for 30 min or until the development of a colorimetric reaction. The absorbance at 405 nm was measured by a microplate reader (Biotek, Elx808). The data was plotted with Graphpad Prism software. Representative mAbs from each class were tested for their binding to O1 LPS (FIG. 2A) and O2 LPS (FIG. 2B), and EC50 values were obtained (FIG. 2C). The majority of the anti-O2 LPS mAbs bound to both O1 and O2 LPS by ELISA. […] None of these LPS mAbs bound to the 03, 04, 05, 07, or 012 LPS serotypes (see e.g., FIG. 1A).

O2 LPS = test: ELISA binding to O2 LPS; set-up: species or system Klebsiella pneumoniae; conditions: secondary screening, ELISA
Method: as §5, §6

[4] = system: K. pneumoniae 43816ΔcpsBLux (O1); test: Opsonophagocytic killing (OPK) assay, O1 capsule mutant; type: cell-based, Klebsiella pneumoniae; set-up: key to D Capsule OPK O1: +++: Strongly positive activity; +: Positive activity; +/−: Somewhat positive depending upon the test conditions
Method: as §2

KPC strain Kp961842_O2 = test: Lethal pneumonia model, KPC strain Kp961842_O2; type: in vivo, Klebsiella pneumoniae; conditions: C57/BL6 mice, 2e8 CFU; mAb 2 mg/kg 1 hour post infection; survival
Method: as §3, §4

K. pneumoniae O1 = test: Lethal O1 pneumonia model; type: in vivo, Klebsiella pneumoniae; set-up: key to Mouse protection models (O1): +++: Strongly positive activity; +: Positive activity; +/−: Somewhat positive depending upon the test conditions
Method: as §3
Mice were challenged with 2e8 CFU of Klebsiella pneumoniae Carbanpenemase (KPC) strain Kp961842_O2 or with 3e8 CFU of KPC strain Kp977778_O2, followed by the administration of anti-O2 mAbs. […]

KPC strain Kp977778_O2 = test: Lethal pneumonia model, KPC strain Kp977778_O2; type: in vivo, Klebsiella pneumoniae; conditions: C57/BL6 mice, 3e8 CFU; mAb 2 mg/kg 1 hour post infection; survival
Method: as §3, §4

B1: KPS44: Class III anti-O2 antigen human mAb; VH SEQ ID NO: 116, VL SEQ ID NO: 117 (antibody, V domains shown)
VH: EVHLVESGGGLVKPGGSLRLSCAASGFTFKNAWMSWIRQAPGKGLEWVGRVKSEVDGGTIDYGVPVRGRFTISRDDSQGTLSLEMNSLKDDDTGVYYCRAFWSGFPTGYWGQGALVSVSS
VL: QSVLTQPPSLSAAPGQTITIACSGTSSNIGSDSVSWFQQFPGTAPRVLIYENNKRPSGISDRFSGSKSGTSVTLGITGLQTGDEADYYCATWDSSLSAYVFGSGTKVTVL
modifications: Description of Artificial Sequence: SyntheticKPS44/KPS44-G1 VH polypeptide; Description of Artificial Sequence: SyntheticKPS44 VL polypeptide
[1]
  neutralizing activity against O1 LPS (NF-κB activation): no activity
[2]
  LPS Neut O2: +/−
  neutralizing activity against O2 LPS (NF-κB activation): moderate neutralizing activity
[3]
  D Capsule OPK O2: +++
  OPK activity against O2 capsule mutant: strong OPK activity
K. pneumoniae O2
  Mouse protection models (O2): +++

B2: KPL26: Class II anti-O2 antigen human mAb; VH SEQ ID NO: 89, VL SEQ ID NO: 90 (antibody, V domains shown)
VH: EVQLVESGGGLVQSGGSLRLSCETSGFIFGSSWMTWVRQAPGKGLEWVATINPDGSATSYEDSVRGRFAVSRDNAKNSVYLQMNSLRAEDTAVYFCTRNKAYNALDYWGQGTLVTVSS
VL: QSALTQPPSASGSPGQSVTLSCTGTSSDVGGNNYVSWYQQHPGKAPKLIIYEVSKRPSGVPNRFSGSKSGNTASLTVSGLQAEDEADYYCSSFGGSKMFGGGTKLTVL
modifications: Description of Artificial Sequence: SyntheticKPL26 VH polypeptide; Description of Artificial Sequence: SyntheticKPL26 VL polypeptide
O1 LPS
  binding to LPS-O1: confirmed to bind
O2 LPS
  binding to LPS-O2: confirmed to bind
[1]; Table 7 summary
  LPS Neut O1: +
[1]
  neutralizing activity against O1 LPS (NF-κB activation): blocked
[1]; secondary screening
  neutralization of LPS-O1: neutralize
[2]
  LPS Neut O2: +
  neutralizing activity against O2 LPS (NF-κB activation): blocked
[2]; secondary screening
  neutralization of LPS-O2: neutralize
[4]; 43816ΔcpsBLux (O1), positive killing above 40%
  OPK activity against O1 strain: induced OPK activity
[4]; capsule mutant strain 43816ΔcpsB lux (O1)
  D Capsule OPK O1: +
[4]; secondary screening
  OPK activity against O1 capsule mutant: showed OPK activity
[3]; 8570ΔcpsBLux (O2), positive killing above 40%
  OPK activity against O2 strain: induced OPK activity
[3]
  D Capsule OPK O2: +
  OPK activity against O2 capsule mutant: showed OPK activity
KPC strain Kp961842_O2
  protection from lethal bacterial challenge, Kp961842_O2: did not show protection
K. pneumoniae O1; mice, survival
  protection in lethal O1 pneumonia model: moderate protection
K. pneumoniae O1; mouse pneumonia model, O1
  Mouse protection models (O1): +

B3: KPS44v2017: sequence-optimized KPS44, Class III; VH SEQ ID NO: 202, VL SEQ ID NO: 203 (antibody, V domains shown)
VH: EVHLVESGGGLVKPGGSLRLSCAASGFTFKNAWMSWIRQAPGKGLEWVGRVKSEVDGGTIDYGVPVRGRFTISRDDSQGTLSLEMNSLKDDDTGVYYCRAFFSGFPTGYWGQGALVSVSS
VL: QSVLTQPPSLSAAPGQTITIACSGTSSNIGSNYVSWFQQFPGTAPRVLIYENNKRPSGISDRFSGSKSGTSVTLGITGLQTGDEADYYCATFDSSLSAYVFGSGTKVTVL
modifications: Description of Artificial Sequence: SyntheticKPS44-v2017/KPS44-G2/KPS44-G3 VH polypeptide; Description of Artificial Sequence: SyntheticKPS44-v2017/KPS44-G1 VL polypeptide
[2]
  LPS Neut O2: +/−
[3]
  D Capsule OPK O2: +++
KPC strain Kp961842_O2
  protection from lethal bacterial challenge, Kp961842_O2: protected
KPC strain Kp977778_O2
  protection from lethal bacterial challenge, Kp977778_O2: protected
K. pneumoniae O2
  Mouse protection models (O2): +++
